Measured values published in publication PMC3777949, “Dimerization Mediates Thermo-Adaptation, Substrate Affinity and Transglycosylation in a Highly Thermostable Maltogenic Amylase of Geobacillus thermoleovorans” (PLoS ONE, 2013).

Experiments:
[1] = substrate: OC[C@H]1O[C@@H]2O[C@H]3[C@H](O)[C@@H](O)[C@@H](O[C@H]4[C@H](O)[C@@H](O)[C@@H](O[C@H]5[C@H](O)[C@@H](O)[C@@H](O[C@H]6[C@H](O)[C@@H](O)[C@@H](O[C@H]7[C@H](O)[C@@H](O)[C@@H](O[C@H]1[C@H](O)[C@H]2O)O[C@@H]7CO)O[C@@H]6CO)O[C@@H]5CO)O[C@@H]4CO)O[C@@H]3CO; experiment: DNSA reducing-sugar assay; format: biochemical, Geobacillus thermoleovorans; details: 100 mM sodium phosphate pH 7.0, 80°C, dimeric mutant
Source text: (§1) DNSA reducing-sugar assay on dimeric Gt-Mamy

[2] = substrate: OC[C@H]1O[C@@H]2O[C@H]3[C@H](O)[C@@H](O)[C@@H](O[C@H]4[C@H](O)[C@@H](O)[C@@H](O[C@H]5[C@H](O)[C@@H](O)[C@@H](O[C@H]6[C@H](O)[C@@H](O)[C@@H](O[C@H]7[C@H](O)[C@@H](O)[C@@H](O[C@H]8[C@H](O)[C@@H](O)[C@@H](O[C@H]1[C@H](O)[C@H]2O)O[C@@H]8CO)O[C@@H]7CO)O[C@@H]6CO)O[C@@H]5CO)O[C@@H]4CO)O[C@@H]3CO; experiment: DNSA reducing-sugar assay; format: biochemical, Geobacillus thermoleovorans; details: 100 mM sodium phosphate pH 7.0, 80°C, dimeric mutant
Source text: as §1

B1: dimeric Gt-Mamy (Geobacillus thermoleovorans; D109E) (protein)
chain: MRKEAIHHRSTDNFAYAYDSETLHLRLQTKKHDVDHVELLFGDPYEWHDGAWQFQTMPMRKTGSDGLFDYWFAEVKPPYRRLRYGFVLRAGDEKLVYTEKGFYHEAPSEDTAYYFCFPFLHRVDLFQAPDWVKDTVWYQIFPERFANGNPAISPKGARPWGSEDPTPTSFFGGDLQGIIDHLDYLADLGITGIYLTPIFRAPSNHKYDTADYFEIDPHFGDKETLKTLVKRCHEKGIRVMLDAVFNHCGYEFAPFQDVLKNGAASRYKDWFHIREFPLQTEPRPNYDTFAFVPQMPKLNTAHPEVKRYLLDVATYWIREFDIDGWRLDVANEIDHEFWREFRQAVKALKPDVYILGEIWHDAMPWLRGDQFDAVMNYPFTDGALRFFAKEEISARQFADIMVRLLHSYPKHVNEAAFNLLGSHDTPRLLTICGDDVRKAKLLFLFQLTFTGSPCIYYGDEIGMTGGNDPECRKCMVWDPEKQNKELYEHVKQLIALRRQYRALRRGDVAFLAADDEANHLVYEKTDGNETVMIIINRSNEAAEIPMPIDARGKWLVNLLTGERFAAEAETLCVSLPPYGFVLYAVESW
notes: full length 588 aa, pCOLD I (Ni-NTA purified, tag kept), E. coli BL21(DE3); homodimer 145 kDa separated by Sephacryl S-200
Km [1]: 0.21 mg/mL
Km [2]: 0.60 mg/mL
